Assay results reported in the supplement of paper PMC10567573.

B1: BTBD1 (parent)
chain: IVGFGLYGSIHGPTDYQVNIQIIE
B2: HSP90AB1 (parent)
chain: TLRQKAEADKNDKAVKDLVVLLFE

Variants of: B1
Assay: protein stability index of a GFP-peptide fusion (GPS, HEK-293T) (PSI 1-6); higher = more stable
Settings: c terminus: a fixed tail appended
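Also: lentivirally expressed fusions sorted by FACS into six bins by GFP to DsRed ratio, PSI derived from sequencing read proportions per bin multiplied by bin number.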

Compared with IVGFGHYGSIHGPTDYQVNIQIIE [L6H], IVGFGDYGSIHGPTDYQVNIQIIE [L6D] is lower in protein stability index: 3.36 for the first, 2.33 for the second.

First: IVGFGIYGSIHGPTDYQVNIQIIE [L6I]
Second: IVGFGAYGSIHGPTDYQVNIQIIE [L6A]
The protein stability index of the first is lower: 2.75 for the first, 3.31 for the second.

First: IVGFGLYGSIHGPTDYQVNIAIIE [Q21A]
Second: IVGFGLYGSIHGPTDYQVNIEIIE [Q21E]
The protein stability index of the first is higher: 3.82 for the first, 2.68 for the second.

Going from IVGFGLYGSIHGPTDYQVNIRIIE [Q21R] to IVGFGLYGSIHGPTDYQVNIYIIE [Q21Y], the protein stability index rises from 2.53 to 3.06.

Compared with IVGFGLYGSIHGPTDYQVNIIIIE [Q21I], IVGFGLYGSIHGPTDYQVNIWIIE [Q21W] is lower in protein stability index: 2.01 for the first, 1.5 for the second.

Going from IVGFGLYGSIDGPTDYQVNIQIIE [H11D] to IVGFGLYGSICGPTDYQVNIQIIE [H11C], the protein stability index rises from 1.97 to 2.58.

Compared with IVGFGLYGSIHGPDDYQVNIQIIE [T14D], IVGFGLYGSIHGPHDYQVNIQIIE [T14H] is lower in protein stability index: 2.94 for the first, 2.71 for the second.

Going from IVGFGLYGSIHGPRDYQVNIQIIE [T14R] to IVGFGLYGSIHGPIDYQVNIQIIE [T14I], the protein stability index falls from 4.46 to 2.73.

Compared with IVGFGLYGSIHGPYDYQVNIQIIE [T14Y], IVGFGLYGSIHGPVDYQVNIQIIE [T14V] is lower in protein stability index: 3.03 for the first, 2.82 for the second.

Compared with IVGFGLYGSIHGPMDYQVNIQIIE [T14M], IVGFGLRGSIHGPTDYQVNIQIIE [Y7R] is higher in protein stability index: 3.23 for the first, 4.6 for the second.

First: IVGFGLMGSIHGPTDYQVNIQIIE [Y7M]
Second: IVGFGLSGSIHGPTDYQVNIQIIE [Y7S]
The protein stability index of the first is higher: 2.82 for the first, 2.47 for the second.

Compared with IVGFGLFGSIHGPTDYQVNIQIIE [Y7F], IVGFGLVGSIHGPTDYQVNIQIIE [Y7V] is higher in protein stability index: 1.86 for the first, 2.16 for the second.

Compared with IVGFGLHGSIHGPTDYQVNIQIIE [Y7H], IVGFGLPGSIHGPTDYQVNIQIIE [Y7P] is lower in protein stability index: 3.81 for the first, 3.54 for the second.

Going from IVGFGLNGSIHGPTDYQVNIQIIE [Y7N] to IVGFGLKGSIHGPTDYQVNIQIIE [Y7K], the protein stability index rises from 2.96 to 3.4.

First: IVGFGLCGSIHGPTDYQVNIQIIE [Y7C]
Second: IVGFGLYGSIHGPTDYQVNIQIII [E24I]
The protein stability index of the first is higher: 2.57 for the first, 2.08 for the second.

Compared with IVGFGLYGSIHGPTDYQVNIQIIV [E24V], IVGFGLYGSIHGPTDYQVNIQIIP [E24P] is lower in protein stability index: 2.95 for the first, 2.89 for the second.

First: IVGFGLYGSIHGPTDYQVNIQIIH [E24H]
Second: IVGFGLYGSIHGPTDYQVNIQIIA [E24A]
The protein stability index of the first is lower: 2.33 for the first, 2.41 for the second.

Going from IVGFGLYGSIHGPTDYQVNIQIIF [E24F] to IVGFGLYGSIHGPTDYQVNIQIIY [E24Y], the protein stability index rises from 1.72 to 2.02.

First: IVGFGLYGSIHGPTDYQVNIQIIS [E24S]
Second: IVGFGLYGSIHGPTDYQVNIQIIW [E24W]
The protein stability index of the first is lower: 2.78 for the first, 3.21 for the second.

First: IVGFGLYGSIHGPTDYQVNIQEIE [I22E]
Second: IVGFGLYGSIHGPTDYQVNIQSIE [I22S]
The protein stability index of the first is lower: 2 for the first, 2.09 for the second.

Compared with IVGFGLYGSIHGPTDYQVNIQGIE [I22G], IVGFGLYGSIHGPTDYQVNIQYIE [I22Y] is higher in protein stability index: 1.91 for the first, 2.48 for the second.

Going from IVGFGLYGSIHGPTDYQVNIQNIE [I22N] to IVGFGLYGSIHGPTDYQVNIQPIE [I22P], the protein stability index rises from 1.24 to 3.17.

Compared with IVGFGLYGSIHGPTDYQVNIQCIE [I22C], IVGFGLYGSIHGPTDYQVNIQFIE [I22F] is lower in protein stability index: 4.32 for the first, 2.84 for the second.

Compared with IVGFGLYGSIHGPTDYQVNIQWIE [I22W], IVGFGLYGSIHGPTDYQVNIQHIE [I22H] is lower in protein stability index: 3.36 for the first, 2.4 for the second.

Compared with IVGFGLYGSIHGPTDYQVNIQVIE [I22V], IVGFGLYGSIHGPTDYVVNIQIIE [Q17V] is lower in protein stability index: 3.25 for the first, 2.48 for the second.

Going from IVGFGLYGSIHGPTDYEVNIQIIE [Q17E] to IVGFGLYGSIHGPTDYGVNIQIIE [Q17G], the protein stability index rises from 2.95 to 4.09.

Compared with IVGFGLYGSIHGPTDYTVNIQIIE [Q17T], IVGFGLYGSIHGPTDYYVNIQIIE [Q17Y] is lower in protein stability index: 2.53 for the first, 2.44 for the second.

Going from IVGFGLYGSIHGPTDYSVNIQIIE [Q17S] to IVGFGLYGSIHGPTDYCVNIQIIE [Q17C], the protein stability index rises from 2.31 to 2.49.

First: IVGFGLYGSIHGPTDYNVNIQIIE [Q17N]
Second: IVGFGLYGSIHGPTDYKVNIQIIE [Q17K]
The protein stability index of the first is higher: 2.98 for the first, 2.3 for the second.

Going from IVGFGLYGSIHGPTDYPVNIQIIE [Q17P] to IVGFGLYGSIHGPTDYDVNIQIIE [Q17D], the protein stability index rises from 1.98 to 2.09.

Going from IVGFGLYGSIHGPTDYQVNSQIIE [I20S] to IVGFGLYGSIHGPTDYQVNDQIIE [I20D], the protein stability index rises from 1.93 to 2.31.

Going from IVGFGLYGSIHGPTDYQVNRQIIE [I20R] to IVGFGLYGSIHGPTDYQVNLQIIE [I20L], the protein stability index rises from 2.12 to 3.4.

Going from IVGFGLYGSIHGPTDYQVNAQIIE [I20A] to IVGFGLYGSIHGPTDYQVNVQIIE [I20V], the protein stability index rises from 2.29 to 2.83.

First: IVGFGLYGSIHGPTDYQVNNQIIE [I20N]
Second: IVGFGLYGSIHGPTDYQVNTQIIE [I20T]
The protein stability index of the first is lower: 1.24 for the first, 2.13 for the second.

Variants of: B2
Assay: as above
Settings: c terminus: a fixed tail appended

Compared with TLRQKAEADKNDKAVKDLVVLLQE [F23Q], TLRQKAEADKNDKAVKDLVVLLRE [F23R] is lower in protein stability index: 4.55 for the first, 3.79 for the second.

Going from TLRQKAEADKNDKAVKDLVVLLTE [F23T] to TLRQKAEADKNDKAVKDLVVLLPE [F23P], the protein stability index rises from 4.76 to 5.02.

First: TLRQKAEADKNDKAVKDLVVLLSE [F23S]
Second: TLRQKAEADKNDKAVKDLVVLLYE [F23Y]
The protein stability index of the first is higher: 3.95 for the first, 3.47 for the second.

Compared with TLRQKAEADKNDKAVKDLVVLLWE [F23W], TLRQKAEADKNDKAVKDLVVLLFI [E24I] is lower in protein stability index: 2.56 for the first, 2.54 for the second.

TLRQKAEADKNDKAVKDLVVLLFM [E24M] and TLRQKAEADKNDKAVKDLVVLLFF [E24F] are the same in protein stability index: 1.83 for the first, 1.83 for the second.

Compared with TLRQKAEADKNDKAVKDLVVLLFW [E24W], TLRQKAEADKNDKAVKDLVVLLFH [E24H] is higher in protein stability index: 1.97 for the first, 2.79 for the second.

Compared with TLRQKAEADKNDKAVKDLVVLLFP [E24P], TLRQKAEADKNDKAVKDLVVLLFV [E24V] is higher in protein stability index: 1.71 for the first, 2.01 for the second.

Going from TLRQKAEADKNDKAVKDLVVLLFL [E24L] to TLRQKAEADKNDKAVKDLVVLLFK [E24K], the protein stability index falls from 2.54 to 2.06.

First: TLRQKAEADKNDKAVKDLVVLLFT [E24T]
Second: TLRQKAEADKNDKAVKDLVVLLFD [E24D]
The protein stability index of the first is lower: 2.14 for the first, 2.83 for the second.

Compared with TLRQKAEADKNDKAVKDLVVLLFS [E24S], TLRQKAEADKNDKAVKDLVVLLFN [E24N] is higher in protein stability index: 2.19 for the first, 2.44 for the second.

Compared with TLRQKAEADKNDKAVKDLVVLLFG [E24G], TLRQKAEADKNDKAVKDLVVLLFQ [E24Q] is higher in protein stability index: 2.26 for the first, 2.64 for the second.

First: TLRQKAEADKNDKAVKDLVVLLFA [E24A]
Second: TLRQKAEADKNDKAVKDLVVLLFY [E24Y]
The protein stability index of the first is lower: 1.89 for the first, 2.21 for the second.

First: TLRQKAEADKNDKAVKDLVVLLFC [E24C]
Second: TLRQKAEADKNDKAVKDLVVLLFR [E24R]
The protein stability index of the first is lower: 1.43 for the first, 2.04 for the second.
